From PMC9143577, “Cationic Geminoid Peptide Amphiphiles Inhibit DENV2 Protease, Furin, and Viral Replication” (Molecules, 2022)
The star is where a group is joined. Palmitoyl = CCCCCCCCCCCCCCCC(=O)*; NHhexadecyl = CCCCCCCCCCCCCCCCN*; AMC = Cc1cc(=O)oc2cc(N*)ccc12; Cbz = O=C(OCc1ccccc1)*

Tests used:
human furin = human furin (Homo sapiens, UniProt P09958)
[1] = biological target: DENV2 protease (NS2B-NS3 construct CF40-…-NS3) (dengue virus serotype 2)
DENV2 protease = DENV2 protease (Dengue virus type 2, UniProt P14340); design: the vector with CF40 fused to NS3pro was used; hexahistidine (N); made in house; host or cells: E. coli strain SG13009; method as in PMID 17184724; details: ref [23], cited from earlier work
Chain of DENV2 protease (P14340 1476-1653): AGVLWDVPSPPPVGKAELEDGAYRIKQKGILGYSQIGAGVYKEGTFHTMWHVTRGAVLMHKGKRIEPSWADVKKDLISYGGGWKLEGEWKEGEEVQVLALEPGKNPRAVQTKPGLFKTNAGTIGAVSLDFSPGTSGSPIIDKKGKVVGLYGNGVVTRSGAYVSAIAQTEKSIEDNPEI
Chain of DENV2 protease (P14340 1398-1437): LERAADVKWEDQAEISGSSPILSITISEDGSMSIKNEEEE

Chain of human furin (P09958 27-794): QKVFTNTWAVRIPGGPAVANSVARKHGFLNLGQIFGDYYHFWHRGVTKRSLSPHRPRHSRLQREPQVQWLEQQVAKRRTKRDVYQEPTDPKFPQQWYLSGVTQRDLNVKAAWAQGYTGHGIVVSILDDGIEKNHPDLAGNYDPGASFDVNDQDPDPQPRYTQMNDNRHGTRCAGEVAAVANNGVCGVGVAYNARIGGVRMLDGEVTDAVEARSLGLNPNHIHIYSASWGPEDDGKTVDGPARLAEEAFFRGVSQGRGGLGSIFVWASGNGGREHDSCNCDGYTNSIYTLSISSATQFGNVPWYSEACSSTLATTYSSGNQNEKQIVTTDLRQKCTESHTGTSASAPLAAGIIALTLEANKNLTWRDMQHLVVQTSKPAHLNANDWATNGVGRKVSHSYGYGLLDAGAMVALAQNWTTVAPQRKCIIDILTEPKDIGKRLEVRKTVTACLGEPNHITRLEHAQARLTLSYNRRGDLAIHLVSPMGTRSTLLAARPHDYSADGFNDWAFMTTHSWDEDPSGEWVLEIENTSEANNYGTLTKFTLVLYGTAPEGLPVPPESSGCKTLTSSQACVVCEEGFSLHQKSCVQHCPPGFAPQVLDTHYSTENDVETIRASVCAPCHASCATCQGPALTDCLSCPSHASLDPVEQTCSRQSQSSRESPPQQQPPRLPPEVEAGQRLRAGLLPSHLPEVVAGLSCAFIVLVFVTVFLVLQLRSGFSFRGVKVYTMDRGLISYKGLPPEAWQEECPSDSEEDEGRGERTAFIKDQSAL

| Molecule | IC50 of inhibition of trypsin activity (4 nM trypsin, 11.4 µM Z-FR-MCA, 100 mM Tris.HCl pH 8.0, 10 mM CaCl2) (trypsin) [µM] | IC50 of inhibition of furin activity (0.76 nM furin, substrate Ac-RVRR-MCA, 10 mM MES pH 7.0, 37 °C) (human furin) [µM] | IC50 of inhibition of DENV2 protease activity (20 nM enzyme, substrate Z-RR-MCA, 50 mM Tris.HCl pH 9.0, 20% glycerol, 37 °C) [1] [µM] | IC50 of inhibition of DENV2 protease activity (50 µM Tyr(3-NO2) substrate, 50 mM Tris.HCl pH 9.0, 10% ethylene glycol, 0.0016% Brij 58) [1] [µM] | kcat for hydrolysis of the substrate (DENV2 protease) [s⁻¹] | Km (DENV2 protease; read-out: KM for hydrolysis of the substrate) [µM] |
| --- | --- | --- | --- | --- | --- | --- |
| C15H31C(O)-Lys-(Ala)-Lys-NHC16H33 (C16-KAK-C16) (peptide) | 17.2 | 3.57 | 0.66 | 2.3 |  |  |
| C15H31C(O)-Lys-(Gly)-Lys-NHC16H33 (C16-KGK-C16) (peptide) | 41 |  | 1.94 | 2.1 |  |  |
| C15H31C(O)-Lys-Lys-NHC16H33 (C16-KK-C16) (peptide) | 85.7 |  | 4.25 |  |  |  |
| Cbz-Arg-Arg-{AMC} |  |  |  |  | 0.11 | 247 |
| Palmitoyl-KAAK-NHhexadecyl (SMILES CCCCCCCCCCCCCCCCNC(=O)[C@H](CCCCN)NC(=O)[C@H](C)NC(=O)[C@H](C)NC(=O)[C@H](CCCCN)NC(=O)CCCCCCCCCCCCCCC) [C15H31C(O)-Lys-(Ala)2-Lys-NHC16H33 (C16-KA2K-C16)] | 20.9 | 2.14 | 0.8 | 1.4 |  |  |
| Palmitoyl-KGGK-NHhexadecyl (SMILES CCCCCCCCCCCCCCCCNC(=O)[C@H](CCCCN)NC(=O)CNC(=O)CNC(=O)[C@H](CCCCN)NC(=O)CCCCCCCCCCCCCCC) [C15H31C(O)-Lys-(Gly)2-Lys-NHC16H33 (C16-KG2K-C16)] |  |  | 3.69 | 10.2 |  |  |
